These results are taken from patent publication US20150266963A1 (ARGEN X B V, published 2015).

Assay [1] addresses T1, human-mouse CD70 chimera chim-2 (Flag-TNC-CD70).
T1 construct: also called chimera 2
T1 chain: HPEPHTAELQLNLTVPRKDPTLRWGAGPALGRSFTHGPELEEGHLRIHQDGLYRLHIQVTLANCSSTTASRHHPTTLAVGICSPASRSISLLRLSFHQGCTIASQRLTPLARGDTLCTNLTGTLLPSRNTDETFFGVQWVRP
As to the kind of experiment: ELISA; chimera captured by anti-Flag mAb. (An ELISA detects its analyte on a solid surface through an enzyme-linked reagent.)

Assay [2] has as its target T2, human-mouse CD70 chimera chim-3 (Flag-TNC-CD70).
T2 construct: also called chimera 3
T2 chain: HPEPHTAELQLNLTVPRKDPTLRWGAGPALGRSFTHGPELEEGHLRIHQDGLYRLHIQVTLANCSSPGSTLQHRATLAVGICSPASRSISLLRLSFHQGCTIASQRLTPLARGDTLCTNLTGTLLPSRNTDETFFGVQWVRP
As to the kind of experiment: ELISA; chimera captured by anti-Flag mAb.

Assay [3] addresses T3, human-mouse CD70 chimera chim-4 (Flag-TNC-CD70) (Mus musculus (Mouse), UniProt O55237 54-192).
T3 construct: also called chimera 4
T3 chain: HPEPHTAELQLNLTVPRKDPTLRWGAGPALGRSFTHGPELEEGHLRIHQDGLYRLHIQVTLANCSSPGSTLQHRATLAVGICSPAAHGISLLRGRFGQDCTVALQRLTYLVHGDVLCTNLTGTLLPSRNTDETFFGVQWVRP
Description: ELISA; chimera captured by anti-Flag mAb.

Assay [4] addresses T4, human CD70 expressed on the surface of cells (human, UniProt P32970 1-193).
T4 construct: whole, on cells; also called cell surface expressed CD70; CD70 on cells
T4 sequence (looked up): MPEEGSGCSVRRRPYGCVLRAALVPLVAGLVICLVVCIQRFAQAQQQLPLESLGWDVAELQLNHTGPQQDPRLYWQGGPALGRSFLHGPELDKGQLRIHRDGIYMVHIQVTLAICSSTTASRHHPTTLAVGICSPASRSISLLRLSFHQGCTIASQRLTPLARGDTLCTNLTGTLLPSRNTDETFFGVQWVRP
As to the kind of experiment: FACS MFI at 37 C, U266 cells; reference SGN70. On the procedure:
(§1) Several cancer cell lines were tested by FACS analysis for binding of ARGX-110 and SGN70 (described in US2010/0129362) at saturating mAb concentrations (at least 2 μg/ml). This was either done at 4° C. (1 hour incubation of cells with mAbs) or at 37° C. (15 minutes incubation of cells with mAbs). Binding was detected using anti-hIgG1-Fc-FITC (AF006, Binding Site) or anti-hIgG1-Fc-PE antibody (eBioscience, 12-4998). Fluorescence was measured using a flow cytometer.

In assay [5] the target is T4, human CD70 expressed on the surface of …. As to the kind of experiment: FACS MFI at 37 C, HUT78 cells; reference SGN70. On the procedure: as §1
For assay [6] the target is unchanged. Description: FACS MFI at 37 C, MKN-45 cells; reference SGN70. As for the experimental part: as §1
Assay [7] has as its target T5, rhesus recombinant CD70 (FLAG-TNC-rhesus CD70) (rhesus).
T5 construct: also called rhesus Flag-TNC-CD70
Description: blocking ELISA; rhesus Flag-TNC-CD70; competitor CD27-Fc.

Assay [8] deals with cynomolgus monkey Flag-TNC-CD70 (cynomolgus monkey). As to the kind of experiment: blocking ELISA; cynomolgus Flag-TNC-CD70; competitor CD27-Fc. On the procedure:
In this assay, a microtiter plate (Nunc Maxisorb) was first coated with 100 μl anti-FLAG M2 monoclonal antibody (Sigma Aldrich, F3165) at 1250-fold dilution in PBS (to achieve a final concentration of approximately 3.5 μg/ml) overnight at 4° C. The plate was washed once with PBS-Tween and incubated at RT for 2 hours with 300 μl PBS-1% casein. The plate was washed a further three times with PBS-Tween. 100 μl of 5 ng/ml (80 pM) Flag-TNC-CD70 (The Journal of Immunology, 2009, 183: 1851-1861) diluted in PBS-0.1% casein was added to the plate and incubated at RT for 1 hour while shaking. The plate was washed five times with PBS-Tween. The CD70 mAb to be tested was added to the plate; various concentrations were achieved by diluting the stock antibody solution in PBS-0.1% casein. Immediately thereafter, 50 μl of 1 μg/ml (final concentration 6.5 nM) recombinant human CD27 Fc chimera (R&D systems 382-CD, MW=46.5 kDa) was added, and incubated at RT for 1 hour while shaking. The plate was washed five times with PBS Tween. 100 μl of biotinylated anti-CD27 (eBioscience 13-0271), diluted 500-fold in PBS-0.1% casein, was added, and the plate incubated at RT for a further hour, while shaking. The plate was washed five times with PBS Tween. […] 100 μl TMB was added to the plate and the OD at 620 nm was measured. […]

In assay [9] the target is T4, human CD70 expressed on the surface of …. As to the kind of experiment: flow cytometry on SU-DHL-6 cells, 1 h at 4 °C, anti-hIgG1-Fc-FITC or anti-hIgG-Fc-PE [panel SU-DHL-6]. On the procedure: […] This was either done at 4° C. (1 hour incubation of cells with mAbs) or at 37° C. (15 minutes incubation of cells with mAbs). Binding was detected using anti-hIgG1-Fc-FITC (AF006, Binding Site) or anti-hIgG1-Fc-PE antibody (eBioscience, 12-4998). Fluorescence was measured using a flow cytometer.
For orientation: In flow cytometry, cells or beads pass a laser one at a time.

B1: ARGX-110 (non-fucosylated 41D12 human IgG1) (antibody, V domains shown)
VH: EVQLVESGGGLVQPGGSLRLSCAASGFTFSVYYMNWVRQAPGKGLEWVSDINNEGGTTYYADSVKGRFTISRDNSKNSLYLQMNSLRAEDTAVYYCARDAGYSNHVPIFDSWGQGTLVTVSS
VL: QAVVTQEPSLTVSPGGTVTLTCGLKSGSVTSDNFPTWYQQTPGQAPRLLIYNTNTRHSGVPDRFSGSILGNKAALTITGAQADDEAEYFCALFISNPSVEFGGGTQLTVLG
notes: also called 41D12 (ARGX-110)
As to B1, the binding result in [1], in [2] and in [3] was “no binding (tested: dilution series from 10 µg/ml)” in each case. Moreover, the “Signal in FACS of ARGX-110/signal in FACS of SGN70” value in assay [4] stood at 0.8 ratio; in [5], 1 ratio; in assay [6], 10.6 ratio. Besides, the IC50 (in general, the midpoint of a concentration-inhibition curve) came to 0.075 mg/L in [7] and 0.048 mg/L in [8]. Moreover, the concentration for a half-maximal effect (EC50 (read off the curve)) (commonly the concentration that produces a half-maximal response) in assay [9] was ~2 mg/L.
